According to ChEMBL document CHEMBL5046279, “Discovery of a Partial Glucokinase Activator Clinical Candidate: Diethyl ((3-(3-((5-(Azetidine-1-carbonyl)pyrazin-2-yl)oxy)-5-isopropoxybenzamido)-1H-pyrazol-1-yl)methyl)phosphonate (BMS-820132)” (J Med Chem, 2022):

Substrate: CCOP(=O)(Cc1csc(NC(=O)c2cc(Oc3ccc(S(C)(=O)=O)cc3)cc(O[C@@H](C)COC)c2)n1)OCC
Details: Homo sapiens; filed as activator
Description: Activation of human glucokinase assessed as decrease in glucose Km

B1: Hexokinase-4 (Homo sapiens), P35557 (protein)
chain: MLDDRARMEAAKKEKVEQILAEFQLQEEDLKKVMRRMQKEMDRGLRLETHEEASVKMLPTYVRSTPEGSEVGDFLSLDLGGTNFRVMLVKVGEGEEGQWSVKTKHQMYSIPEDAMTGTAEMLFDYISECISDFLDKHQMKHKKLPLGFTFSFPVRHEDIDKGILLNWTKGFKASGAEGNNVVGLLRDAIKRRGDFEMDVVAMVNDTVATMISCYYEDHQCEVGMIVGTGCNACYMEEMQNVELVEGDEGRMCVNTEWGAFGDSGELDEFLLEYDRLVDESSANPGQQLYEKLIGGKYMGELVRLVLLRLVDENLLFHGEASEQLRTRGAFETRFVSQVESDTGDRKQIYNILSTLGLRPSTTDCDIVRRACESVSTRAAHMCSAGLAGVINRMRESRSEDVMRITVGVDGSVYKLHPSFKERFHASVRRLTPSCEITFIESEEGSGRGAALVSAVACKKACMLGQ
  Km: 2400 µM
